From patent US20200003757A1, “METHOD OF IDENTIFYING AGENTS THAT AFFECT MATURATION, SURVIVAL AND MYELINATION” (KADIMASTEM, LTD., priority 2011, published 2020)

B1: IFN-Y: recombinant human IFN-Y (R&D systems, Biotest, 285-IF-100) (protein, UniProt P01579 24-161, looked up)
Interferon gamma: QDPYVKEAENLKKYFNAGHSDVADNGTLFLGILKNWKEESDRKIMQSQIVSFYFKLFKNFKDDQSIQKSVETIKEDMNVKFFNSNKKKRDDFEKLTNYSVTDLNVQRKAIHELIQVMAELSPAAKTGKRKRSQMLFRG
B2: Noggin: an inhibitor of BMP signaling (Preprotech, Israel) (protein, UniProt Q13253 28-232, looked up)
Noggin: QHYLHIRPAPSDNLPLVDLIEHPDPIFDPKEKDLNETLLRSLLGGHYDPGFMATSPPEDRPGGGGGAAGGAEDLAELDQLLRQRPSGAMPSEIKGLEFSEGLAQGKKQRLSKKLRRKLQMWLWSQTFCPVLYAWNDLGSRFWPRYVKVGSCFSKRSCSVPEGMVCKPSKSVHLTVLRWRCQRRGGQRCGWIPIQYPIISECKCSC

Columns and labels:
human oligodendrocytes = test: Human oligodendrocytes and hESC-OPC survival assay (dead cell labeling and O4 labeling); format: cell-based; conditions: 14 days in culture
Experimental: In order to evaluate the survival of human oligodendrocytes or its progenitor cells in culture, a specific dead cell labeling (Live/dead viability/cytotoxicity kit for mammalian cells, Invitrogen, molecular probes, L3223) was used. A culture of differentiated oligodendrocytes and oligodendrocytes progenitor culture sorted by O4+ or CD140+ MACS sorting respectively were obtained. The effect of recombinant human IFN-Y (R&D systems, Biotest, 285-IF-100) was tested on oligodendrocytes survival. Following 14 days in culture the cells were labeled with dead cell labeling (Ethidium heterodimer 1-red labeling) and O4 labeling (green). […] Such an assay gives complementary results on the effect of tested compound on oligodendrocytes survival.

hES-OPC = test: Differentiation assay; dose response of Noggin on hES-OPC (O4/DAPI staining, Cellomics neuronal profiling); format: cell-based, human
Experimental: 5000 hES-OPC were seeded in each well of Matrigel and PDL-coated 96 well black clear plates (CI-3603, Corning). The medium used for the experiment comprised DMEM/F12 with 0.5% (v/v) N2 supplement (Invitrogen), 1% (v/v) B27 supplement, Glutamax and 100 U/ml penicillin and 100 μg/ml streptomycin (Biological Industries, IL). The cells were deprived from growth factors 24 hours prior to seeding. 12 hours following seeding, increasing doses of Noggin (Preprotech, Israel) were supplemented to the media for the ten days of differentiation. The Noggin doses ranged between 15 nM to 0.015 nM (450 ng/ml to 0.45 ng/ml) with 3.16 fold dilutions (square root of 10) in the presence of 0.1% DMSO and 50 μg/ml Vitamin C. Samples without Noggin in the presence of 0.1% DMSO and 50 μg/ml Vitamin C served as negative control. The media was changed every other day by replenishing ⅔ of the media. On day ten, the wells were fixed using 4% paraformaldehyde (PFA) for further O4 and Dapi staining.
Cells were fixed using 4% paraformaldehyde (PFA), washed with PBS and kept at 4° C. before staining. Non-specific staining was blocked with normal goat serum (5% w/v in PBS) for 30 minutes at RT. Primary mouse monoclonal (mMc) and rabbit polyclonal antibodies, diluted in 1% goat serum, were as described in Table 2, herein below. All staining was followed by the nuclear fluorescent dye DAPI (Sigma, 0.05 μg/ml). All coverslips were mounted in Mowiol (Calbiochem, La Jolla, Calif.). An Olympus IX-70 FLA microscope with a DVC-1310C digital camera (DVC, Austin, Tex.) was used and images processed with Photoshop and analyzed with Image-Pro-Plus software (Media Cybernetics, Silver Spring, Md.) to measure Integrated Optic Density (IOD) of color-specific pixels and MBP positive fiber length. […]
BMP signaling negatively regulates oligodendrocyte lineage development, and it has been shown that Noggin, an inhibitor of BMP signaling, promotes the differentiation of ES-derived oligodendrocytes. As a proof of concept that effects of drugs on oligodendrocyte differentiation can be quantified, the inventors searched for the optimal concentration of Noggin to be used to promote differentiation. […] Nuclear DNA staining with DAPI was used to quantify the cell number per field, and oligodendrocytes were characterized by staining with O4. […] Similarly, O4 positive processes (green) were counted and measured only if attached to O4 cell body. Places where one process becomes two were counted as branch point (FIGS. 3D-E, yellow circles). The numbers of processes, their lengths, and the number of branch points per O4 positive cell body were counted. […] Thus, it may be concluded that the present assay is capable of quantifying the effect of Noggin. […]

Molecule | percentage of dead cells (human oligodendrocytes; Ethidium heterodimer 1 labeling, FIG. 12E) | number of differentiated oligodendrocytes (O4+ cells) (human oligodendrocytes; O4 labeling, FIG. 12F) | morphology of O4 positive OLs versus absence of Noggin (hES-OPC; Noggin added after growth factor removal, FIGS. 3A-C) | number of O4 positive cell per well (hES-OPC; ten days differentiation with noggin treatment) | process numbers per cell, total process length per well, number of branch points per cell (hES-OPC; ten days differentiation, O4 positive cells, serial dilutions of Noggin) | EC50 (hES-OPC; ten days without growth factors, O4 staining, triplicate, FIG. 3F, read-out: EC50 (50% of the maximal effect), curve generated by integrating process numbers per cell, total process length per well and number of branch points per cell)
B1 | increased the percentage of dead cells | decreased the number of differentiated oligodendrocytes | – | – | – | –
B2 | – | – | stimulates the emergence of OLs with longer and multiple processes | not changed | correlated with Noggin concentration | 157 pM
